Measurements from patent publication US8552157B2, “c-Kit antibodies and uses thereof” (ImClone LLC, priority 2011, dated 2013).
One block for each compound: values may come before it.

Assays:
[1] = test system: MALM-3M human melanoma cell line xenograft; experiment: Xenograft tumor growth inhibition, MALM-3M; format: in vivo, athymic nude mice
Method: Briefly described, c-Kit-dependent human cancer cell lines are expanded in culture and then are injected subcutaneously into the rear flank of athymic nude mice (Charles River, Wilmington, Mass.) with 2-10 million cells per mouse. Anti-c-Kit mAbs are diluted in PBS, pH 7.2, and administered by intravenous injection at 4 or 40 mg/kg. […] Furthermore, treatment groups may include appropriate chemotherapy drugs or approved RTK inhibitors alone or in combination with the antibodies of the present invention. Antibodies and saline control are administered three times per week for four weeks Inhibition of tumor cell growth is determined by three dimensional caliper measurement of tumor volume twice weekly during the course of treatment. Tumor volume may be calculated as follows: Tumor volume(mm^3)=(length of the tumor)(width^2 of the tumor)(π/6), where the length of the tumor is the largest dimension of the tumor parallel to the skin surface and the width is the largest measurement perpendicular to the length, parallel to the skin surface. Body weight may also be measured frequently during the course of treatment as a general measurement of toxicity. T/C %, and P values are calculated by RM ANOVA where, T/C %=[(Treatment Volume/Initial Volume)/(Control Volume/Initial Volume)]*100 and the P value is calculated in relation to saline.

[2] = target: T1, c-Kit in Mo7e cells (Homo sapiens, UniProt P10721); experiment: In vitro c-Kit degradation assay (Example 7, western blot), Mo7e; format: cell-based; details: SCF 100 ng/ml, 12, 24, and 48 hours at 37° C., data not shown
T1 construct: endogenous in cells; host or cells: Mo7e (human megakaryocytic leukemia)
Method: An in vitro cell based assay may be used to measure the ability of c-Kit mAbs to induce degradation of c-Kit as measured by the amount of total c-Kit found in cell lysates after treating tumor cells with a c-Kit mAb at 37° C. Briefly, human cell lines expressing c-Kit (e.g., Mo7e and GIST882) are plated in a 6-well dish at a density of 3×10^6 cells/ml in 3 ml of serum-free media. […] One well of cells is left untreated as a control. Immediately after the treatment period, the cells are washed in cold PBS, lysed in 100 μl lysis buffer (50 mM Hepes pH 7.5, 150 mM NaCl, 10 mM NaPPi, 50 mM NaF, 1 mM Na3VO4, 1% Triton X-100, protease inhibitor cocktail). After a ten minute incubation on ice, the cells are centrifuged at 12,000 g for 15 minutes at 4° C. The supernatant is collected and subjected to western blot analysis under reducing conditions. […] As expected from previous reports in the scientific literature,
degradation of c-Kit was not observed after treatment of the tumor cells with SCF (100 ng/ml) for 12, 24, and 48 hours at 37° C. (data not shown).

[3] = target: T1, c-Kit in Mo7e cells; experiment: In vitro c-Kit degradation assay (Example 7a, western blot), Mo7e; format: cell-based
Method: Human cell lines expressing c-Kit (e.g., GIST882, Mo7e, and Malm-3M) are plated in a 6-well dish at a density of 3×10^6 cells/ml in 3 ml of serum-free media for all but one Mo7e assay that uses 10% serum. […] One well of cells is left untreated as a control. Immediately after the treatment period, the cells are washed in cold PBS, lysed in 100 μl lysis buffer (50 mM Hepes pH 7.5, 150 mM NaCl, 10 mM NaPPi, 50 mM NaF, 1 mM Na3VO4, 1% Triton X-100, protease inhibitor cocktail). After a ten minute incubation on ice, the cells are centrifuged at 12,000 g for 15 minutes at 4° C. The supernatant is collected and subjected to western blot analysis under reducing conditions. […] SCF induced degradation is not apparent when using 10% serum. (Replicates of GIST882=1, Mo7e=3, and Malm-3M=1).

[4] = target: T2, c-Kit in GIST882 cells (Homo sapiens, UniProt P10721, K642E); experiment: In vitro c-Kit degradation assay (Example 7, western blot), GIST882; format: cell-based; details: SCF 100 ng/ml, 12, 24, and 48 hours at 37° C., data not shown
T2 construct: endogenous in cells; host or cells: GIST882 (human gastrointestinal stromal tumor)
T2 sequence (P10721 26-976 K642E): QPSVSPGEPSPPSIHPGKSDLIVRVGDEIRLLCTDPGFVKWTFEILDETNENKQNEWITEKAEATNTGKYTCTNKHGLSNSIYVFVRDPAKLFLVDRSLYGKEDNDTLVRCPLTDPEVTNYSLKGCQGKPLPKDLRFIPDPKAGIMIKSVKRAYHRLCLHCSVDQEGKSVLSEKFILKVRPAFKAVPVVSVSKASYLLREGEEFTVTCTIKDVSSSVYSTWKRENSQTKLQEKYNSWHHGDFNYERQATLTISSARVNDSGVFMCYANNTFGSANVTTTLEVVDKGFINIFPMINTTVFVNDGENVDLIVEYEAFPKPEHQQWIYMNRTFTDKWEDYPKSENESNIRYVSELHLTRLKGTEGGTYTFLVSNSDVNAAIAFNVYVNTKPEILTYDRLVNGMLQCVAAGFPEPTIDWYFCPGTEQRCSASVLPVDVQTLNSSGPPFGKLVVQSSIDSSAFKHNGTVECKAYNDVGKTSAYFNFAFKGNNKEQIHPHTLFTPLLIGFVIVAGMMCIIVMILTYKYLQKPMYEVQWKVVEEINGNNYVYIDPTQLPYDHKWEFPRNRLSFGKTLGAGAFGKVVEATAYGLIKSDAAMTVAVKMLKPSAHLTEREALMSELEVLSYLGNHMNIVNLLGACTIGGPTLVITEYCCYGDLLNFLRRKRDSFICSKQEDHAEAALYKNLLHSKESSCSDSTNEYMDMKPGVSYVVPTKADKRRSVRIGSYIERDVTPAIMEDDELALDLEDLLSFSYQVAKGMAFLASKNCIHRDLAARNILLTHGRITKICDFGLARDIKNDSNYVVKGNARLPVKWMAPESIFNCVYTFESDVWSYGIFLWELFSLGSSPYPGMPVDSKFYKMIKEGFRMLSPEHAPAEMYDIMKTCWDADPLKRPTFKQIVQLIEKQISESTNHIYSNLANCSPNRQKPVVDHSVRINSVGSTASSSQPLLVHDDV

T1 sequence (P10721 26-976): as the sequence (P10721 26-976 K642E) above, with E617K counted along it

Compound: CCN(CC)CCNC(=O)c1c(C)[nH]c(/C=C2\C(=O)Nc3ccc(F)cc32)c1C [Sunitinib, sunitinib, reference compound]
- T/C % ([1]; Table 13 lower part, Sunitinib 40 mg/kg, P value 0.0004): 68%

Compound: CN(C)/N=N/c1[nH]cnc1C(N)=O [DTIC, dacarbazine, reference compound]
- T/C % ([1]; Table 13 upper part, DTIC 80 mg/kg, P value 0.0021): 68%

- degradation of c-Kit, in words [2]: not observed
- degradation of c-Kit, in words ([3]; SCF 1 ug/ml and 100 ng/ml, 24 hours at 37° C., 0% serum): Degradation of c-Kit is observed
- degradation of c-Kit, in words ([3]; SCF, 10% serum): not apparent
- degradation of c-Kit, in words [4]: not observed
Compound: SCF: c-Kit ligand stem cell factor (SCF) [reference compound]

Compound: Cc1ccc(NC(=O)c2ccc(CN3CCN(C)CC3)cc2)cc1Nc1nccc(-c2cccnc2)n1 [Imatinib, imatinib, reference compound]
- T/C % ([1]; Table 13 lower part, Imatinib 100 mg/kg, P value 0.0001): 61%
